The source of these data is article PMC12464775, “Selective and Potent Peptide Binders of RNF43 for Wnt Signaling Inhibition” (ACS Central Science, 2025).

The target of this test is T1, extracellular domain (ECD) of the human RNF43 protein, biotinylated, Q68DV7.
T1 chain: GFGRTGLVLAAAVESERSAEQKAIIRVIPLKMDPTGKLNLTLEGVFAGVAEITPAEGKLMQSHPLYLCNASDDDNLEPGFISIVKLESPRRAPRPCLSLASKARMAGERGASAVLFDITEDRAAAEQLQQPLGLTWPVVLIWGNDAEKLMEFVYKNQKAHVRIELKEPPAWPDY
In words: SPR. The settings on record: chain shown with the change;; parent: 1.1 ± 0.07 nM.

Regarding EQCTSTQDLCHDASHVCCWPLDCRWAVKYQWFWDCIG [GUR-1.6.12.2 Y13A], the equilibrium dissociation constant (Kd) stood at 36 nM.

Broadly, the Kd is a measure of binding affinity in units of concentration.
